Measured values as given in US12295987B2, “Method of using a GIP/GLP1 co-agonist for diabetes” (Eli Lilly and Company, priority 2018, dated 2025).
Numbered stars: 1 amine (or outer) side, 2 acyl side, 3 side chain; on linkers, the order of the positions; unused ones are H or OH. Square brackets hold non-standard residues; d marks the D form. Side chains are listed from the residue outwards. Ends that are not written are not given here. * marks the point of attachment. C20 diacid = O=C(O)CCCCCCCCCCCCCCCCCCC(=O)*; γGlu = O=C(O)[C@H](CCC(=O)[*:2])N[*:1]; αMeL = CC(C)C[C@](C)(N)C(=O)O; αMeK = C[C@](N)(CCCCN)C(=O)O; AEEA = NCCOCCOCC(=O)O; Aib = CC(C)(N)C(=O)O

Molecular target: T1, human gastric inhibitory peptide receptor (hGIPR) (Homo sapiens, UniProt P48546)
T1 construct: expressed in transfected cells; host or cells: HEK293
T1 sequence (P48546 22-466): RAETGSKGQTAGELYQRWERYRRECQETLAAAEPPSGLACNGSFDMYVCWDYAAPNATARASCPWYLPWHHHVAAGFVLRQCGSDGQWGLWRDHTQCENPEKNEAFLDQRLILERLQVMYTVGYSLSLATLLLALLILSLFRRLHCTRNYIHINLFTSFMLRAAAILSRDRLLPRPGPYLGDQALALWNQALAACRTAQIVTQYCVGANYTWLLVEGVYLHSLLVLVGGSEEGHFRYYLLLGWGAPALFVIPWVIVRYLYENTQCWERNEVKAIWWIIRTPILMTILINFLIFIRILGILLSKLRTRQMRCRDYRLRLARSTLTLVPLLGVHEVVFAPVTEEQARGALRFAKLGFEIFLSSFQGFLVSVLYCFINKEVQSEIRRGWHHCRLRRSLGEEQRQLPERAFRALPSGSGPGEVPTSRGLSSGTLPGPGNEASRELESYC
Test: cAMP pharmacological functional assay in presence of 0.1% casein, hGIPR
Assay type: cell-based
Conditions: ratio of hGIPR to hGLP1R cAMP EC50 ratios

| Substance | [hGIPR/hGLP1R] EC50 Ratio |
| --- | --- |
| Y-Aib-EGTFTSDYSI-αMeL-LDEK((2-[2-(2-Amino-ethoxy)-ethoxy]-acetyl)2-(γGlu)-CO—(CH2)18—CO2H)AQ-Aib-AFIEYLLEGGPSSGAPPPS-NH2 (YXEGTFTSDYSIXLDEKAQXAFIEYLLEGGPSSGAPPPS; Aib, αMeL, lipidated Lys, C-terminal amide; (2)..(2) Xaa at position 2 is Aib; (13)..(13) Xaa at position 13 is alpha-methyl-Leu; MOD_RES (17)..(17) Lys at position 17 is chemically modified by conjugation of the epsilon-amino group of the Lys side chain with (2-[2-(2-amino-ethoxy)-ethoxy]-acetyl)2-(gamma-Glu)-CO-(CH2)18- CO2H; (20)..(20) Xaa at position 20 is Aib; MOD_RES (39)..(39) Ser at position 39 is amidated) [Peptide 66] | 7.41 |
| Y-Aib-EGTFTSDYSI-αMeL-LDEK((2-[2-(2-Amino-ethoxy)-ethoxy]-acetyl)2-(γGlu)-CO—(CH2)18—CO2H)AQ-αMeK-AFIEYLLE-Aib-GPSSGAPPPS-NH2 (Y[Aib]EGTFTSDYSI[αMeL]LDEK([AEEA-AEEA-γGlu-C20 diacid])AQ[αMeK]AFIEYLLE[Aib]GPSSGAPPPS-NH2; N-terminus assumed; SMILES CC[C@H](C)[C@H](NC(=O)[C@H](Cc1ccccc1)NC(=O)[C@H](C)NC(=O)[C@](C)(CCCCN)NC(=O)[C@H](CCC(N)=O)NC(=O)[C@H](C)NC(=O)[C@H](CCCCNC(=O)COCCOCCNC(=O)COCCOCCNC(=O)CC[C@H](NC(=O)CCCCCCCCCCCCCCCCCCC(=O)O)C(=O)O)NC(=O)[C@H](CCC(=O)O)NC(=O)[C@H](CC(=O)O)NC(=O)[C@H](CC(C)C)NC(=O)[C@](C)(CC(C)C)NC(=O)[C@@H](NC(=O)[C@H](CO)NC(=O)[C@H](Cc1ccc(O)cc1)NC(=O)[C@H](CC(=O)O)NC(=O)[C@H](CO)NC(=O)[C@@H](NC(=O)[C@H](Cc1ccccc1)NC(=O)[C@@H](NC(=O)CNC(=O)[C@H](CCC(=O)O)NC(=O)C(C)(C)NC(=O)[C@@H](N)Cc1ccc(O)cc1)[C@@H](C)O)[C@@H](C)O)[C@@H](C)CC)C(=O)N[C@@H](CCC(=O)O)C(=O)N[C@@H](Cc1ccc(O)cc1)C(=O)N[C@@H](CC(C)C)C(=O)N[C@@H](CC(C)C)C(=O)N[C@@H](CCC(=O)O)C(=O)NC(C)(C)C(=O)NCC(=O)N1CCC[C@H]1C(=O)N[C@@H](CO)C(=O)N[C@@H](CO)C(=O)NCC(=O)N[C@@H](C)C(=O)N1CCC[C@H]1C(=O)N1CCC[C@H]1C(=O)N1CCC[C@H]1C(=O)N[C@@H](CO)C(N)=O) [Peptide 22] | 6.41 |
